# Tests used:
# [1] = tested on: HA-L2g cells transduced with pBA9b-hIFNg-yCD2 vector; assay: MTS cell viability of HA-L2g cells transduced with pBA9b-hIFNg-yCD2; type: cell-based, human
# Method: The concentration PALA required to kill HA-L2g cells transduced with pBA9b-hIFNg-yCD2 vector is determined. Cells are seeded at 1e3 cells in 96-well plates the day before. At 24 hour post cell seeding, PALA at 1, 10, 50 and 100 μM are added to the culture for 4 consecutive days followed MTS assay to determine the cell viability. […] A range of cytosine concentrations are also determined (0.2, 1, 5 10 mM) in culture by performing the same experiment described above.
# CT-26 = assay: mIFNg-induced MHC Class I upregulation in CT-26 cells (flow cytometry); type: cell-based, mouse; details: vs purified recombinant protein from E. coli
# Method: (§1) To verify the bioactivity of recombinant hIFNg and mIFNg produced from the virus producer cell, upregulation of MHC Class I cell surface expression by flow cytometry was performed. Supernatant of known IFNg concentration were incubated with species-matched mouse colon carcinoma cell line, CT-26 or human fibrosarcoma cell line, HT1080. The degree of upregulation measured by mean fluorescent intensity (MFI) was compared to a standard which are purified recombinant protein expressed from E. coli. […] The recombinant hIFNg produced from the virus producer cells are 3-5 fold higher than that produced from E. coli (FIG. 2B). The difference is likely due to the differences in amino acid composition as well as glycosylation pattern.
# TGFβ1, 2 and 3 = TGFβ1, 2 and 3 gene expression (Taqman) in cancer cell lines before and after IFNγ treatment; type: cell-based, human; details: panel of cancer cell lines including glioma
# Excerpt: A panel of cancer cell lines including glioma cell lines were surveyed for their TGFβ1, 2 and 3 expression before and after IFNγ treatment using human TGF isoform-specific Taqman primers (Life Technology). […] Some expression more TGFβ1 and others express more TGFβ2. In all cases, TGFβ3 expression is low. In contrast to IDO1 and PDL1, TGFβ1, 2 and 3 expression is not induced by IFNγ.
# IDO1 = IDO1 protein expression in glioma cell lines after IFNγ induction; type: cell-based, human; details: panel of glioma cell lines; level of induction varies
# Excerpt: A panel of glioma cell lines were surveyed for their IDO1 expression after IFNγ induction. […] GAPDH (anti-human GAPDH at 1:500, Cell Signaling) detection was included as a loading control.
# PDL1 = assay: PD-L1 cell surface expression in cancer cell lines before and after IFNγ induction; type: cell-based, human; details: panel of cancer cell lines including glioma
# Excerpt: Its expression can be further induced by IFNγ. A panel of cancer cell lines including glioma cell lines is surveyed for their PDL1 expression (anti-human PD-L1 antibody, eBioscience) before and after IFNγ induction.
# HT1080 = assay: hIFNg-induced MHC Class I upregulation in HT1080 cells (flow cytometry); type: cell-based, human; details: MFI
# Method: as §1
# CTLL-2 = assay: IL-2 bioactivity, CTLL-2 proliferation (3H-thymidine incorporation); type: cell-based, mouse; details: produced by HA-L2 cells; vs recombinant IL-2 from E. coli
# Method: CTLL-2 cell growth depends greatly on the presence of IL-2. The bioactivity of IL-2 is determined by the level of ^3H-thymidine incorporation into the DNA of proliferating cells. […] In addition, the level of CD expression from pBA9b-IFNg-yCD2 transduced HA-L2 cells is also detected by immunoblotting using an antibody against CD.
molecule,measurement,setting,value
"O=C(O)C[C@H](NC(=O)CP(=O)(O)O)C(=O)O [PALA, N-(phosphonacetyl)-L-aspartate]",cell viability with PALA,"[1]; 1, 10, 50 and 100 μM, 4 consecutive days",sensitive to PALA at 10 μM and plateau at 50 μM
Nc1cc[nH]c(=O)n1 [cytosine],cell viability with cytosine,"[1]; 0.2, 1, 5, 10 mM",can tolerate cytosine in all concentrations tested
"recombinant mIFNg produced by the virus producer cells: mouse IFNg in supernatant of virus producer cells (protein, UniProt P01580 23-155, looked up) Interferon gamma: HGTVIESLESLNNYFNSSGIDVEEKSLFLDIWRNWQKDGDMKILQSQIISFYLRLFEVLKDNQAISNNISVIESHLITTFFSNSKAKKDAFMSIAKFEVNNPQVQRQAFNELIRVVHQLLPESSLRKRKRSRC","bioactivity (MHC Class I upregulation, MFI)",CT-26,comparable to that of recombinant mIFNg produced by E. coli
"IFNγ: interferon gamma used to induce IDO1 and PDL1 expression in cell lines (protein, UniProt P01579 24-161, looked up) Interferon gamma: QDPYVKEAENLKKYFNAGHSDVADNGTLFLGILKNWKEESDRKIMQSQIVSFYFKLFKNFKDDQSIQKSVETIKEDMNVKFFNSNKKKRDDFEKLTNYSVTDLNVQRKAIHELIQVMAELSPAAKTGKRKRSQMLFRG","TGFβ1, 2 and 3 expression induced by IFNγ","TGFβ1, 2 and 3",not induced
same,IDO1 expression after IFNγ induction,IDO1,upregulated
same,PDL1 expression further induced by IFNγ,PDL1,"most of the cells lines, but not all, tested here are responsive"
"recombinant hIFNg produced from the virus producer cells: human IFNg in supernatant of virus producer cells (protein, UniProt P01579 24-161, looked up) Interferon gamma: QDPYVKEAENLKKYFNAGHSDVADNGTLFLGILKNWKEESDRKIMQSQIVSFYFKLFKNFKDDQSIQKSVETIKEDMNVKFFNSNKKKRDDFEKLTNYSVTDLNVQRKAIHELIQVMAELSPAAKTGKRKRSQMLFRG",bioactivity higher than that produced from E. coli,HT1080,3-5 fold
"mIL-2: recombinant mouse IL-2 produced by the HA-L2 cells (protein, UniProt P04351 21-169, looked up) Interleukin-2: APTSSSTSSSTAEAQQQQQQQQQQQQHLEQLLMDLQELLSRMENYRNLKLPRMLTFKFYLPKQATELKDLQCLEDELGPLRHVLDLTQSKSFQLEDAENFISNIRVTVVKLKGSDNTFECQFDDESATVVDFLRRWIAFCQSIISTSPQ",IL-2 bioactivity,CTLL-2,comparable

# From US11230719B2, “Retroviral vector having immune-stimulating activity” (DENOVO BIOPHARMA LLC, priority 2014, dated 2022)
